Data on one substance can be found in paper PMC2952662.

In this assay the target is N-terminally His6-tagged Akt1 PH domain S2-S128 construct (human). As to the kind of experiment: SPR. For orientation: In SPR one partner is held on a chip, and binding of the other changes the refractive index at the surface.

A word on the Kd: it is the constant that tells how readily two partners part at equilibrium. A higher Kd goes with a looser complex. Broadly, the koff is the rate constant with which the complex falls apart. Read a low koff as a long-lived complex.

As for “Akt inhibitor VI, a 15 residue peptide derived from the oncogene TCL1”, the Kd stood at 1400 nM and the koff amounted to 0.000116 s⁻¹.
